In patent US20140050720A1, “ULTRALONG COMPLEMENTARITY DETERMINING REGIONS AND USES THEREOF” (THE SCRIPPS RESEARCH INSTITUTE, priority 2012, published 2014):

Experiments:
Format in all cases: cell-based
Mouse NFS-60 cells = experiment: Proliferation assay on mouse NFS-60 cells (AlamarBlue); settings: for F.I. (AlamarBlue fluorescence at 595 nm, cell viability): 72 hours
Experimental: Mouse NFS-60 cells were obtained from American Type Culture Collection (ATCC), VA, and cultured in RPMI-1640 medium supplemented with 10% fetal bovine serum (FBS), 0.05 mM 2-mercapoethanol and 62 ng/ml human macrophage colony stimulating factor (M-CSF). For proliferation assay, mouse NFS-60 cells were washed three times with RPMI-1640 medium and resuspended in RPMI-1640 medium with 10% FBS and 0.05 mM 2-mercapoethanol at a density of 1.5×10^5 cells/ml. In 96-well plates, 100 μl of cell suspension was added into each well, followed by the addition of varied concentrations of bGCSF, BLV1H12 antibody, and the immunoglobulin constructs described herein, Equal volume of PBS buffer was added into the control wells. The plates were incubated at 37° C. in a 5% CO2 incubator for 72 hours. Cells were then treated with AlamarBlue (Invitrogen) ( 1/10 volume of cell suspension) for 4 hours at 37° C. Fluorescence at 595 nm for each well was read to indicate the cell viability.

GLP-1 receptor (GLP-1R) = biological target: T1, GLP-1 receptor (GLP-1R) (Homo sapiens, UniProt P43220); experiment: GLP-1R activation, cAMP responsive luciferase reporter in HEK293 cells; settings: HEK293 cells expressing GLP-1R, 24 h
T1 construct: expressed in transfected cells; host or cells: HEK293 cells expressing surface GLP-1R and a cAMP responsive luciferase reporter
T1 sequence (P43220 24-463, species assumed): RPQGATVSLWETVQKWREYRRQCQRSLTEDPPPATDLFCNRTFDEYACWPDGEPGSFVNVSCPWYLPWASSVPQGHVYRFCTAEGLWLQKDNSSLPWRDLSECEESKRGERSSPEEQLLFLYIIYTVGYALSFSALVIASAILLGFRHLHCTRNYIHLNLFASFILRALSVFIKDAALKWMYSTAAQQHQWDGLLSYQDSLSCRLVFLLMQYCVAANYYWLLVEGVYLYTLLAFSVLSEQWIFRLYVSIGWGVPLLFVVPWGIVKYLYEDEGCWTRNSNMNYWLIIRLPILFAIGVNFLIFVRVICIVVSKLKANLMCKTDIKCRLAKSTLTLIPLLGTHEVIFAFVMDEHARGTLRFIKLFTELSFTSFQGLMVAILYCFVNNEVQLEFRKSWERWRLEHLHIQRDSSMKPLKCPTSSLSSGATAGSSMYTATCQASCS
Experimental: HEK293 cells expressing surface GLP-1R and cAMP responsive luciferase reporter gene were seeded in 384 well plates at a density of 5000 cells per well. […] Subsequently, luciferase assay was performed using One-Glo luciferase reagent according manufacture's instruction (Promega).
HEK293 cells expressing surface GLP-1R and cAMP responsive luciferase reporter gene were seeded in 384 well plates at a density of 5000 cells per well. After 24 h incubation at 37° C. with 5% CO2, cells were treated with various concentrations of peptides and BLV1H12-GLP-1 clip fusion proteins and incubated for another 24 h. Subsequently, luciferase assay was performed using One-Glo luciferase reagent according manufacture's instruction (Promega).

TF-1 cells = experiment: Proliferation assay on TF-1 cells (AlamarBlue); settings: 72 h
Experimental: TF-1 cells were obtained from American Type Culture Collection (ATCC), VA, and cultured in RPMI-1640 medium supplemented with 10% fetal bovine serum (FBS), penicillin, streptomycin and 2 ng/mL granulocyte-macrophage colony-stimulating factor (GM-CSF). For proliferation assay, TF-1 cells were washed three times with RPMI-1640 medium and resuspended in RPMI-1640 medium with 10% FBS and penicillin and streptomycin at a density of 1.5×10^5 cells/ml. Cells were plated in 96-well plates and treated with varied concentrations of BLV1H12-hEPO fusion antibodies. After 72 h of incubation at 37° C. with 5% CO2, cells viabilities were measured using AlamarBlue (Invitrogen) assay following manufacture's instruction. FIG. 21 and Table 18 show the proliferative activity of Ab-hEPO fusion antibodies on TF1 cells.

B1: Ab: bovine BLV1H12 antibody with ultralong CDR3, no inserted polypeptide; heavy chain SEQ ID NO: 24, light chain SEQ ID NO: 23 (antibody)
heavy: QVQLRESGPSLVKPSQTLSLTCTASGFSLSDKAVGWVRQAPGKALEWLGSIDTGGNTGYNPGLKSRLSITKDNSKSQVSLSVSSVTTEDSATYYCTSVHQETKKYQSCPDGYRERSDCSNRPACGTSDCCRVSVFGNCLTTLPVSYSYTYNYEWHVDVWGQGLLVTVSS
light: QAVLNQPSSVSGSLGQRVSITCSGSSSNVGNGYVSWYQLIPGSAPRTLIYGDTSRASGVPDRFSGSRSGNTATLTISSLQAEDEADYFCASAEDSSSNAVFGSGTTLTVLGQPKSPPSVTLFPPSTEELNGNKATLVCLISDFYPGSVTVVWKADGSTITRNVETTRASKQSNSKYAASSYLSLTSSDWKSKGSYSCEVTHEGSTVTKTVKPSECS
Mouse NFS-60 cells
  proliferative activity on mouse NFS-60 cells: lack of proliferative activity
Mouse NFS-60 cells; 0.45725 ng/mL
  F.I. (AlamarBlue fluorescence at 595 nm, cell viability): 1040
Mouse NFS-60 cells; 1.37174 ng/mL
  F.I. (AlamarBlue fluorescence at 595 nm, cell viability): 1010
Mouse NFS-60 cells; 4.11523 ng/mL
  F.I. (AlamarBlue fluorescence at 595 nm, cell viability): 983.3
Mouse NFS-60 cells; 12.34568 ng/mL
  F.I. (AlamarBlue fluorescence at 595 nm, cell viability): 971.8
Mouse NFS-60 cells; 37.03704 ng/mL
  F.I. (AlamarBlue fluorescence at 595 nm, cell viability): 960.5
Mouse NFS-60 cells; 111.11111 ng/mL
  F.I. (AlamarBlue fluorescence at 595 nm, cell viability): 991.83
Mouse NFS-60 cells; 333.33333 ng/mL
  F.I. (AlamarBlue fluorescence at 595 nm, cell viability): 964.798
GLP-1 receptor (GLP-1R); 1.26953 nM
  RLU (luciferase reporter): 5200
GLP-1 receptor (GLP-1R); 2.53906 nM
  RLU (luciferase reporter): 5000
GLP-1 receptor (GLP-1R); 5.07813 nM
  RLU (luciferase reporter): 5600
GLP-1 receptor (GLP-1R); 10.15625 nM
  RLU (luciferase reporter): 5500
GLP-1 receptor (GLP-1R); 20.3125 nM
  RLU (luciferase reporter): 5380
GLP-1 receptor (GLP-1R); 40.625 nM
  RLU (luciferase reporter): 4600
GLP-1 receptor (GLP-1R); 81.25 nM
  RLU (luciferase reporter): 6140
GLP-1 receptor (GLP-1R); 162.5 nM
  RLU (luciferase reporter): 5760
GLP-1 receptor (GLP-1R); 325 nM
  RLU (luciferase reporter): 5600
GLP-1 receptor (GLP-1R); 650 nM
  RLU (luciferase reporter): 5800
GLP-1 receptor (GLP-1R); 1300 nM
  RLU (luciferase reporter): 14000
TF-1 cells; 0.00236 nM
  F.I. (AlamarBlue, cell viability): 4274.07
TF-1 cells; 0.01178 nM
  F.I. (AlamarBlue, cell viability): 4267.586
TF-1 cells; 0.05888 nM
  F.I. (AlamarBlue, cell viability): 3905.529
TF-1 cells; 0.2944 nM
  F.I. (AlamarBlue, cell viability): 4091.452
TF-1 cells; 1.472 nM
  F.I. (AlamarBlue, cell viability): 4109.106
TF-1 cells; 7.36 nM
  F.I. (AlamarBlue, cell viability): 4071.234
TF-1 cells; 36.8 nM
  F.I. (AlamarBlue, cell viability): 4100.011
TF-1 cells; 184 nM
  F.I. (AlamarBlue, cell viability): 4413.497
TF-1 cells; 4.71E−04 nM
  F.I. (AlamarBlue, cell viability): 4223.257
TF-1 cells; 9.42E−05 nM
  F.I. (AlamarBlue, cell viability): 4108.119
